Like-named read-outs stand apart in the source and are kept apart here. One block for each molecule: values may come before it.
Legend:
[1] = biological target: T1, Drosophila melanogaster AgmNAT (CG15766), wild-type (Drosophila melanogaster, UniProt Q9W469); assay: AgmNAT steady-state kinetics, coenzyme A release with Ellman's reagent (DTNB); format: biochemical; details: for acceptance as amine substrate: amine substrate screen with acetyl-CoA; for kcat,app / Km: 300 mM Tris-HCl pH 8.5, 150 µM DTNB
Experimental: Steady-state kinetic constants for AgmNAT were determined by measuring the rate of coenzyme A release using Ellman’s reagent (DTNB) at 412 nm (molar absorptivity = 13,600 M^−1 cm^−1)[15]–[17]. […] Initial velocities were measured using a Cary 300 Bio UV-Visible spectrophotometer at 22 °C. Acyl-CoA kinetic constants were evaluated by holding the concentration of agmatine at a constant saturating concentration (5 mM). […] The apparent kinetic constants were determined by fitting the resulting data to equation 1 using SigmaPlot 12.0, where vo is the initial velocity, Vmax,app is the apparent maximal velocity, [S] is the substrate concentration, and Km,app is the apparent Michaelis constant. Each assay was performed in triplicate and the uncertainty for the kcat,app and (kcat/Km)app values were calculated using equation 2, where σ is the standard error.1 vo=Vmax,app[S]/Km,app+[S] 2 σ(x/y)=x/y(σx/x)^2+(σy/y)^2

[2] = biological target: T1, Drosophila melanogaster AgmNAT (CG15766), wild-type; assay: AgmNAT dead-end and product inhibition analysis; format: biochemical
Experimental: Initial velocities were determined by varying the concentration of one substrate, while holding the other substrate at a fixed concentration. […] The resulting initial velocity data was fit to equation 3 for an ordered Bi-Bi mechanism and equation 4 for a ping pong mechanism using IGOR Pro 6.34 A, where vo is the initial velocity, Vmax is the maximal velocity, Kia is the dissociation constant for substrate A, Kb is the Michaelis constant for substrate B, Ka is the Michaelis constant for substrate A, [A] is the concentration of substrate A, and [B] is the concentration of substrate B.3 vo=Vmax[A][B]/KiaKb+Ka[B]+Kb[A]+[A][B] 4 vo=Vmax[A][B]/Ka[B]+Kb[A]+[A][B]
Inhibition experiments by either substrate analogs or N-acetylagamatine were used to discriminate between an ordered, random sequential, or ping pong kinetic mechanism. […] Initial velocity patterns were generated by varying the concentration of one substrate, holding the other substrate concentration at its apparent Km, and changing the concentration of inhibitor for each data set in triplicate. The resulting data was fit to equations 5–7, for competitive, noncompetitive, and uncompetitive inhibition respectively using SigmaPlot 12.0. For […], vo is the initial velocity, Vmax,app is the apparent maximal velocity, Km,app is the apparent Michaelis constant, [S] is the substrate concentration, [I] is the inhibitor concentration, and Ki is the inhibition constant.5 vo=Vmax,app[S]/Km,app(1+[I]/Ki)+[S] 6 vo=Vmax,app[S]/Km,app(1+[I]/Ki)+[S](1+[I]/Ki) 7 vo=Vmax,app[S]/Km,app+[S](1+[I]/Ki)

[3] = substrate: N=C(N)NCCCCN; assay: AgmNAT steady-state kinetics, coenzyme A release with Ellman's reagent (DTNB); format: biochemical, Drosophila melanogaster; details: other: amine varied, 500 μM acetyl-CoA, 300 mM Tris-HCl pH 8.5, 150 µM DTNB, 22.0 °C
[4] = substrate: NCCCCCN; assay: as above; format: biochemical, Drosophila melanogaster; details: other: amine varied, 500 μM acetyl-CoA, 300 mM Tris-HCl pH 8.5, 150 µM DTNB, 22.0 °C
[5] = substrate: NCCCCNCCCN; assay: as above; format: biochemical, Drosophila melanogaster; details: other: amine varied, 500 μM acetyl-CoA, 300 mM Tris-HCl pH 8.5, 150 µM DTNB, 22.0 °C
[6] = substrate: CC(=O)SCCNC(=O)CCNC(=O)[C@H](O)C(C)(C)COP(=O)(O)OP(=O)(O)OC[C@H]1O[C@@H](n2cnc3c(N)ncnc32)[C@H](O)[C@@H]1OP(=O)(O)O; assay: Steady-state kinetics of AgmNAT site-directed mutant P35A; format: biochemical, Drosophila melanogaster; details: other: P35A, acetyl-CoA varied, saturating agmatine, pH 8.5
Source text: (§1) Following the amplification of the AgmNAT site-directed mutant, the sub-cloning, expression, and purification procedures are the same as discussed for the wild-type enzyme.

[7] = substrate: N=C(N)NCCCCN; assay: as above; format: biochemical, Drosophila melanogaster; details: other: P35A, agmatine varied, saturating acetyl-CoA, pH 8.5
Source text: as §1

[8] = substrate: CC(=O)SCCNC(=O)CCNC(=O)[C@H](O)C(C)(C)COP(=O)(O)OP(=O)(O)OC[C@H]1O[C@@H](n2cnc3c(N)ncnc32)[C@H](O)[C@@H]1OP(=O)(O)O; assay: Steady-state kinetics of AgmNAT site-directed mutant S171A; format: biochemical, Drosophila melanogaster; details: other: S171A, acetyl-CoA varied, saturating agmatine, pH 8.5
Source text: as §1

[9] = substrate: N=C(N)NCCCCN; assay: as above; format: biochemical, Drosophila melanogaster; details: other: S171A, agmatine varied, saturating acetyl-CoA, pH 8.5
Source text: as §1

[10] = substrate: CC(=O)SCCNC(=O)CCNC(=O)[C@H](O)C(C)(C)COP(=O)(O)OP(=O)(O)OC[C@H]1O[C@@H](n2cnc3c(N)ncnc32)[C@H](O)[C@@H]1OP(=O)(O)O; assay: Steady-state kinetics of AgmNAT site-directed mutant E34A; format: biochemical, Drosophila melanogaster; details: other: E34A, acetyl-CoA varied, saturating agmatine, pH 8.5
Source text: as §1

[11] = substrate: N=C(N)NCCCCN; assay: as above; format: biochemical, Drosophila melanogaster; details: other: E34A, agmatine varied, saturating acetyl-CoA, pH 8.5
Source text: as §1

[12] = substrate: CC(=O)SCCNC(=O)CCNC(=O)[C@H](O)C(C)(C)COP(=O)(O)OP(=O)(O)OC[C@H]1O[C@@H](n2cnc3c(N)ncnc32)[C@H](O)[C@@H]1OP(=O)(O)O; assay: Steady-state kinetics of AgmNAT site-directed mutant H206A; format: biochemical, Drosophila melanogaster; details: other: H206A, acetyl-CoA varied, saturating agmatine, pH 8.5
Source text: as §1

[13] = substrate: N=C(N)NCCCCN; assay: as above; format: biochemical, Drosophila melanogaster; details: other: H206A, agmatine varied, saturating acetyl-CoA, pH 8.5
Source text: as §1

[14] = amine varied, 500 μM acetyl-CoA
[15] = amine varied, 500 μM acetyl-CoA, read-out: Km, app
[16] = varied substrate agmatine, constant acetyl-CoA (0.1 mM; 104 µM), read-out: Ki,s
[17] = acyl-CoA varied, 5 mM agmatine, read-out: Km,app

acceptance as amine substrate [1]: not AgmNAT substrates
Molecule: CC(=O)NCCCCN [N-acetylputrescine]

kcat,app [1, 14]: 7.7 ± 0.3 s⁻¹
Km [1, 15]: 51000 ± 3000 µM
Molecule: NCCCCN [Putrescine]

acceptance as acyl-CoA substrate ([1]; agmatine as amine substrate, oleoyl-CoA at 500 μM): not a substrate
Ki ([2]; varied substrate acetyl-CoA, constant agmatine (0.3 mM), read-out: Ki,s): 19 ± 1 µM
Ki ([2]; varied substrate agmatine, constant acetyl-CoA (0.1 mM; 104 µM), read-out: Ki,i): 67 ± 4 µM
Ki [2, 16]: 67 ± 4 µM
type of inhibition plot (in words) ([2]; versus acetyl-CoA): competitive
type of inhibition plot (in words) ([2]; versus agmatine): noncompetitive
Molecule: CCCCCCCC/C=C\CCCCCCCC(=O)SCCNC(=O)CCNC(=O)[C@H](O)C(C)(C)COP(=O)(O)OP(=O)(O)OC[C@H]1O[C@@H](n2cnc3c(N)ncnc32)[C@H](O)[C@@H]1OP(=O)(O)O [Oleoyl-CoA]

kcat,app ([1]; acyl-CoA varied, 5 mM agmatine): 0.61 ± 0.02 s⁻¹
Km [1, 17]: 140 µM
Molecule: CCCCCCCC(=O)SCCNC(=O)CCNC(=O)[C@H](O)C(C)(C)COP(=O)(O)OP(=O)(O)OC[C@H]1O[C@@H](n2cnc3c(N)ncnc32)[C@H](O)[C@@H]1OP(=O)(O)O [Octanoyl-CoA]

acceptance as amine substrate [1]: not AgmNAT substrates
Molecule: CC(=O)NCCCNCCCCN [N ^1-acetylspermidine]

(kcat/Km)app,agmatine/(kcat/Km)app,polyamine ratio ([1]; acetyl-CoA as co-substrate): 1900
Molecule: NCCCCCN [Cadaverine]

difference in Km,app relative to spermidine ([1]; acetyl-CoA as co-substrate): ~ 2 fold
increase in kcat,app compared to spermidine ([1]; acetyl-CoA as co-substrate): ~ 25 fold
kcat,app [1, 14]: 32 ± 2 s⁻¹
Km [1, 15]: 9100 ± 1000 µM
Molecule: CC(=O)NCCCCNCCCN [N ^8-acetylspermidine]

kcat,app ([1]; acyl-CoA varied, 5 mM agmatine): 0.16 ± 0.01 s⁻¹
Km [1, 17]: 70 µM
decrease in kcat,app from acetyl-CoA to decanoyl-CoA ([1]; agmatine as saturating amine substrate): ~ 150 fold
Molecule: CCCCCCCCCC(=O)SCCNC(=O)CCNC(=O)[C@H](O)C(C)(C)COP(=O)(O)OP(=O)(O)OC[C@H]1O[C@@H](n2cnc3c(N)ncnc32)[C@H](O)[C@@H]1OP(=O)(O)O [Decanoyl-CoA]

kcat,app ([1]; acyl-CoA varied, 5 mM agmatine): 1.1 ± 0.04 s⁻¹
Km [1, 17]: 110 µM
Molecule: CCCCCC(=O)SCCNC(=O)CCNC(=O)C(O)C(C)(C)COP(=O)(O)OP(=O)(O)OC[C@H]1O[C@@H](n2cnc3c(N)ncnc32)[C@H](O)[C@@H]1OP(=O)(O)O (some centres unmarked) [Hexanoyl-CoA]

More lines, now with the values behind:

Molecule: N=C(N)NCCC[C@H](N)C(=O)O [arginine]
acceptance as amine substrate [1]: not AgmNAT substrates

Molecule: NC(N)=NCCCCN=C(N)N [Arcaine]
Ki ([2]; varied substrate acetyl-CoA, constant agmatine (0.3 mM), read-out: Ki,i): 34 ± 1 µM
Ki [2, 16]: 28 ± 1 µM
type of inhibition plot (in words) ([2]; versus acetyl-CoA): uncompetitive
type of inhibition plot (in words) ([2]; versus agmatine): competitive

Molecule: NCCCNCCCCNCCCN [Spermine]
(kcat/Km)app,agmatine/(kcat/Km)app,polyamine ratio ([1]; acetyl-CoA as co-substrate): 15
kcat,app [1, 14]: 77 ± 7 s⁻¹
Km [1, 15]: 18000 ± 3000 µM

Molecule: CCCC(=O)SCCNC(=O)CCNC(=O)[C@H](O)C(C)(C)COP(=O)(O)OP(=O)(O)OC[C@H]1O[C@@H](n2cnc3c(N)ncnc32)[C@H](O)[C@@H]1OP(=O)(O)O [Butyryl-CoA]
kcat,app ([1]; acyl-CoA varied, 5 mM agmatine): 3.3 ± 0.1 s⁻¹
Km [1, 17]: 40 µM

B1: Drosophila melanogaster AgmNAT (CG15766), wild-type (Drosophila melanogaster) (protein)
chain: MAKPIADDIVVRQVDVGETEQLMTFLLAHYYPEEPLTAGTHPPEPEAADKEFLLSNVPFGTCFVALHEGRIVAAVVAGPKDSHEPEHMAEEARKYAGGKWGSILHLLSAVETATDVCRRFSVPSCLHVHALGVDPQLRGRNLGGRLMETVAQRGRDLGHQLVSVDCTSVYSARLVQRLGYQLINTLRYVDHLDASGQQVIRPPPPHESVQTFVLHL
Km [3]: 300 ± 20 µM
kcat [3]: 18 ± 1 s⁻¹
kcat/Km [3]: 60000 ± 5000 M⁻¹ s⁻¹
Km [4]: 32000 ± 6000 µM
kcat [4]: 1 ± 0.1 s⁻¹
kcat/Km [4]: 32 ± 6 M⁻¹ s⁻¹
Km [5]: 17000 ± 500 µM
kcat [5]: 1.3 ± 0.009 s⁻¹
kcat/Km [5]: 76 ± 0.5 M⁻¹ s⁻¹

B2: AgmNAT P35A mutant (Drosophila melanogaster; P35A) (protein)
chain: MAKPIADDIVVRQVDVGETEQLMTFLLAHYYPEEALTAGTHPPEPEAADKEFLLSNVPFGTCFVALHEGRIVAAVVAGPKDSHEPEHMAEEARKYAGGKWGSILHLLSAVETATDVCRRFSVPSCLHVHALGVDPQLRGRNLGGRLMETVAQRGRDLGHQLVSVDCTSVYSARLVQRLGYQLINTLRYVDHLDASGQQVIRPPPPHESVQTFVLHL
Km [6]: (2.3 ± 0.3) × 10^2 μM
kcat [6]: 0.43 ± 0.03 s⁻¹
kcat/Km [6]: 1900 ± 300 M⁻¹ s⁻¹
Km [7]: 180 ± 20 µM
kcat [7]: 0.36 ± 0.02 s⁻¹
kcat/Km [7]: 1900 ± 200 M⁻¹ s⁻¹

B3: AgmNAT S171A mutant (Drosophila melanogaster; S171A) (protein)
chain: MAKPIADDIVVRQVDVGETEQLMTFLLAHYYPEEPLTAGTHPPEPEAADKEFLLSNVPFGTCFVALHEGRIVAAVVAGPKDSHEPEHMAEEARKYAGGKWGSILHLLSAVETATDVCRRFSVPSCLHVHALGVDPQLRGRNLGGRLMETVAQRGRDLGHQLVSVDCTSVYAARLVQRLGYQLINTLRYVDHLDASGQQVIRPPPPHESVQTFVLHL
Km [8]: 24 ± 1 µM
kcat [8]: 1.84 ± 0.03 s⁻¹
kcat/Km [8]: 75000 ± 3000 M⁻¹ s⁻¹
Km [9]: 1000 ± 200 µM
kcat [9]: 1.7 ± 0.1 s⁻¹
kcat/Km [9]: 1600 ± 300 M⁻¹ s⁻¹

B4: AgmNAT E34A mutant (Drosophila melanogaster; E34A) (protein)
chain: MAKPIADDIVVRQVDVGETEQLMTFLLAHYYPEAPLTAGTHPPEPEAADKEFLLSNVPFGTCFVALHEGRIVAAVVAGPKDSHEPEHMAEEARKYAGGKWGSILHLLSAVETATDVCRRFSVPSCLHVHALGVDPQLRGRNLGGRLMETVAQRGRDLGHQLVSVDCTSVYSARLVQRLGYQLINTLRYVDHLDASGQQVIRPPPPHESVQTFVLHL
Km [10]: 18 ± 3 µM
kcat [10]: 0.011 ± 0.0004 s⁻¹
kcat/Km [10]: 600 ± 100 M⁻¹ s⁻¹
Km [11]: 6000 ± 1000 µM
kcat [11]: 0.013 ± 0.001 s⁻¹
kcat/Km [11]: 2.3 ± 0.3 M⁻¹ s⁻¹

B5: AgmNAT H206A mutant (Drosophila melanogaster; H206A) (protein)
chain: MAKPIADDIVVRQVDVGETEQLMTFLLAHYYPEEPLTAGTHPPEPEAADKEFLLSNVPFGTCFVALHEGRIVAAVVAGPKDSHEPEHMAEEARKYAGGKWGSILHLLSAVETATDVCRRFSVPSCLHVHALGVDPQLRGRNLGGRLMETVAQRGRDLGHQLVSVDCTSVYSARLVQRLGYQLINTLRYVDHLDASGQQVIRPPPPAESVQTFVLHL
Km [12]: (2.4 ± 0.3) × 10^2 μM
kcat [12]: 1.3 ± 0.1 s⁻¹
kcat/Km [12]: 5000 ± 1000 M⁻¹ s⁻¹
Km [13]: 420 ± 40 µM
kcat [13]: 1.2 ± 0.1 s⁻¹
kcat/Km [13]: 2800 ± 300 M⁻¹ s⁻¹

Reference: article PMC5647378, “Structural and Mechanistic Analysis of Drosophila melanogaster Agmatine N-Acetyltransferase, an Enzyme that Catalyzes the Formation of N-Acetylagmatine” (Scientific Reports, 2017)
